The source of these data is paper doi:10.1101/183855.

The test deals with DEAD-box RNA helicase DDX6 (human (endogenous in 293T)) (UniProt P26196). As to the kind of experiment: proximity ligation.
Chain of UniProt P26196 (P26196 whole entry): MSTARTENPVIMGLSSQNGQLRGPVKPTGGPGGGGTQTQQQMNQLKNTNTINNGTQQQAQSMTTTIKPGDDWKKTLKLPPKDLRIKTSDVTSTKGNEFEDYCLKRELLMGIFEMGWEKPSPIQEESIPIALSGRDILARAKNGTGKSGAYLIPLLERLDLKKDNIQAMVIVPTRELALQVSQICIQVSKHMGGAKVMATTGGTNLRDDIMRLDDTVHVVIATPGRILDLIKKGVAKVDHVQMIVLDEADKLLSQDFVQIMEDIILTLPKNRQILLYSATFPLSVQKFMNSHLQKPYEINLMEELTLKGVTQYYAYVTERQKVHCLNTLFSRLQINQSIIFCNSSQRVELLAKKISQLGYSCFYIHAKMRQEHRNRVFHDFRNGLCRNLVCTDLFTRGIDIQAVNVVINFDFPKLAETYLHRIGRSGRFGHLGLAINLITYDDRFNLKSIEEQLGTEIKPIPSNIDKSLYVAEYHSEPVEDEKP

In turn, “G2A Gag (HIV-1 Gag with glycine 2 changed to alanine, expressed from LAI provirus) (natural protein)” displayed a PLA spots per Z stack image (PLA spots per Z stack image) of 56 and a PLA spots per cell (PLA spots per cell) of 50.

“HIV-1 Gag, wild type (expressed from LAI provirus) (natural protein)” displayed a PLA spots per cell (PLA spots per cell) of 50.
